Key:
Type in all cases: binding
[1] = biological target: T1, Gβ1γ2 Asp186Ala (Rattus norvegicus, UniProt P54311, D186A); test: Phage ELISA, b-βγ mutant Asp186Ala; conditions: alanine-substituted Asp186, N-Terminal Interface; mean ± SD
T1 construct: made in house; host or cells: Sf9 insect cells (baculovirus)
From the text: (§1) Wild-type Gβ1 and Gβ1 mutants were made in the baculovirus vector PDW464 which encodes a biotinylation site at a lysine upstream of the amino terminus of Gβ1 (Goubaeva, et al. (2003) supra). Mutants were generated by overlap extension PCR using standard protocols. The wild-type and mutant Gβ1 constructs consisted of a 20 amino acid biotin acceptor peptide (BAP) sequence fused in-frame with the amino-terminus of rat Gβ1 subunit. When coexpressed with biotin holoenzyme synthetase (BirA) in Sf9 cells, the Gβ1 subunit becomes covalently biotinylated in vivo at the Specific lysine acceptor residue in the BAP. Using this approach, 1-2 mg protein of purified protein can be obtained per liter of Sf9 insect cells. As 45 ng of protein is used in the phage ELISA assay, a single purification is sufficient for 10,000 to 30,000 binding assays.
(§2) Phage ELISA assays used to assess peptide binding to wild-type and mutant b-βγ were performed according to standard methods (Smrcka and Scott (2002) Methods Enzymol. 344:557-76). Briefly, 1 μg streptavidin was immobilized in the well of a […] overnight at 4° C. The wells were blocked with 100 μL of 2% bovine serum albumin (BSA) in Tris-buffered saline (TBS) for 1 hour at 4° C. followed by three washes of 1×TBS/0.5% TWEEN®. Forty μL of 25 nM bGβ1γ2 in TBS/0.5% TWEEN® was added to each well and incubated at 4° C. for 1.5 hour. The wells were washed, followed by the addition of 1×10^6 to 1×10^10 phage particles and incubated at 4° C. for 3 hours. The wells were then washed six times with TBS/0.5% TWEEN® followed by addition of 40 μL of 1:5000 dilution of anti-M13 antibody (Pharmacia, Uppsala, Sweden) and incubated at room temperature for 1 hour. The wells were washed, followed by the addition of 40 μL of (2,2′-Azino-bis(3-ethylbenzthiazoline)-6-sulfonic acid (ABTS) and the colorimetric reaction was monitored at 405 nm. Non-specific binding was subtracted for each reading.
(§3) Both assays were then carried out with Gβ1γ2 heterodimers containing mutations in the Gβ1 subunit.
(§4) The nine peptides were selected to represent the different consensus groups of peptides previously identified (See Scott et al. (2001) supra; Table 9) and to compare binding characteristics within and between consensus groups. […] As disclosed herein, the binding signal obtained in the ELISA assay was correlated to a loss in affinity by comparing the results to behavior of the peptide in a solution based assay. […] For the purposes of present disclosure, any substitution that decreased the binding to less than 20% of the wild-type binding was considered to be a critical binding contact for that peptide.

[2] = biological target: T2, Gβ1γ2 Met101Ala (Rattus norvegicus, UniProt P54311, M101A); test: Phage ELISA, b-βγ mutant Met101Ala; conditions: alanine-substituted Met101, C-Terminal Interface; mean ± SD
T2 construct: made in house; host or cells: Sf9 insect cells (baculovirus)
T2 sequence (P54311 whole entry M101A): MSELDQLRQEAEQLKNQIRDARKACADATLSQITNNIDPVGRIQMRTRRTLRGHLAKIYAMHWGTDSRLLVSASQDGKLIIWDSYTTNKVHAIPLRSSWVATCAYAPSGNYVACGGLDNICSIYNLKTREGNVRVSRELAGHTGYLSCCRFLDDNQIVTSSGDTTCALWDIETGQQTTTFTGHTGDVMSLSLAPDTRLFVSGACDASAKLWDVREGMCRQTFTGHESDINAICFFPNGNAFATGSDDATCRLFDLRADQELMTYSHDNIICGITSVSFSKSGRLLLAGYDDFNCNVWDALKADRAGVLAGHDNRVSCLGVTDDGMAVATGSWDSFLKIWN
T2 sequence (P63212 2-68 partner limits assumed): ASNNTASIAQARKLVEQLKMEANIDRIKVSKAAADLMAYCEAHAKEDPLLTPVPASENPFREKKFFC
From the text: as §1, §2, §3, §4

[3] = biological target: T3, Gβ1γ2 Met188Ala (Rattus norvegicus, UniProt P54311, M188A); test: Phage ELISA, b-βγ mutant Met188Ala; conditions: alanine-substituted Met188, Shared; mean ± SD
T3 construct: made in house; host or cells: Sf9 insect cells (baculovirus)
T3 sequence (P54311 whole entry M188A): as the sequence (P54311 whole entry M101A) above, with A101M, M188A counted along it
T3 sequence (P63212 2-68 partner limits assumed): as the sequence (P63212 2-68 partner limits assumed) above
From the text: as §1, §2, §3, §4

[4] = biological target: T4, Gβ1γ2 Trp332Ala (Rattus norvegicus, UniProt P54311, W332A); test: Phage ELISA, b-βγ mutant Trp332Ala; conditions: alanine-substituted Trp332, C-Terminal Interface; mean ± SD
T4 construct: made in house; host or cells: Sf9 insect cells (baculovirus)
T4 sequence (P54311 whole entry W332A): as the sequence (P54311 whole entry M101A) above, with A101M, W332A counted along it
T4 sequence (P63212 2-68 partner limits assumed): as the sequence (P63212 2-68 partner limits assumed) above
From the text: as §1, §2, §3, §4

[5] = biological target: T5, Gβ1γ2 His311Ala (Rattus norvegicus, UniProt P54311, H311A); test: Phage ELISA, b-βγ mutant His311Ala; conditions: alanine-substituted His311, Indirect; mean ± SD
T5 construct: made in house; host or cells: Sf9 insect cells (baculovirus)
T5 sequence (P54311 whole entry H311A): as the sequence (P54311 whole entry M101A) above, with A101M, H311A counted along it
T5 sequence (P63212 2-68 partner limits assumed): as the sequence (P63212 2-68 partner limits assumed) above
From the text: as §1, §2, §3, §4

[6] = biological target: T6, Gβ1γ2 Asp246Ser (Rattus norvegicus, UniProt P54311, D246S); test: Phage ELISA, b-βγ mutant Asp246Ser; conditions: Asp246 mutant (Asp246Ser), N-Terminal Interface; mean ± SD
T6 construct: made in house; host or cells: Sf9 insect cells (baculovirus)
T6 sequence (P54311 whole entry D246S): as the sequence (P54311 whole entry M101A) above, with A101M, D246S counted along it
T6 sequence (P63212 2-68 partner limits assumed): as the sequence (P63212 2-68 partner limits assumed) above
From the text: as §1, §2, §3, §4

[7] = biological target: T7, Gβ1γ2 Leu117Ala (Rattus norvegicus, UniProt P54311, L117A); test: Phage ELISA, b-βγ mutant Leu117Ala; conditions: alanine-substituted Leu117, C-Terminal Interface; mean ± SD
T7 construct: made in house; host or cells: Sf9 insect cells (baculovirus)
T7 sequence (P54311 whole entry L117A): as the sequence (P54311 whole entry M101A) above, with A101M, L117A counted along it
T7 sequence (P63212 2-68 partner limits assumed): as the sequence (P63212 2-68 partner limits assumed) above
From the text: as §1, §2, §3, §4

[8] = biological target: T8, Gβ1γ2 Arg314Ala (Rattus norvegicus, UniProt P54311, R314A); test: Phage ELISA, b-βγ mutant Arg314Ala; conditions: alanine-substituted Arg314, Indirect; mean ± SD
T8 construct: made in house; host or cells: Sf9 insect cells (baculovirus)
T8 sequence (P54311 whole entry R314A): as the sequence (P54311 whole entry M101A) above, with A101M, R314A counted along it
T8 sequence (P63212 2-68 partner limits assumed): as the sequence (P63212 2-68 partner limits assumed) above
From the text: as §1, §2, §3, §4

[9] = biological target: T9, Gβ1γ2 Tyr59Ala (Rattus norvegicus, UniProt P54311, Y59A); test: Phage ELISA, b-βγ mutant Tyr59Ala; conditions: alanine-substituted Tyr59, C-Terminal Interface; mean ± SD
T9 construct: made in house; host or cells: Sf9 insect cells (baculovirus)
T9 sequence (P54311 whole entry Y59A): as the sequence (P54311 whole entry M101A) above, with Y59A, A101M counted along it
T9 sequence (P63212 2-68 partner limits assumed): as the sequence (P63212 2-68 partner limits assumed) above
From the text: as §1, with “BAP.” for “BAP. Using this approach, 1-2 mg protein of purified protein can be obtained per liter of Sf9 insect cells. As 45 ng of protein is used in the phage ELISA assay, a single purification is sufficient for 10,000 to 30,000 binding assays.”
as §2, with “Forty μL of 25 nM bGβ1γ2 in TBS/0.5% TWEEN® was added to each well and incubated at 4° C. for 1.5 hour.” left out
as §3
The nine peptides were selected to represent the different consensus groups of peptides previously identified (See Scott et al. (2001) supra; Table 9) and to compare binding characteristics within and between consensus groups. […] For the purposes of present disclosure, any substitution that decreased the binding to less than 20% of the wild-type binding was considered to be a critical binding contact for that peptide.

[10] = biological target: T10, Gβ1γ2 Asn230Ala (Rattus norvegicus, UniProt P54311, N230A); test: Phage ELISA, b-βγ mutant Asn230Ala; conditions: alanine-substituted Asn230, N-Terminal Interface; mean ± SD
T10 construct: made in house; host or cells: Sf9 insect cells (baculovirus)
T10 sequence (P54311 whole entry N230A): as the sequence (P54311 whole entry M101A) above, with A101M, N230A counted along it
T10 sequence (P63212 2-68 partner limits assumed): as the sequence (P63212 2-68 partner limits assumed) above
From the text: as §1, §2, §3, §4

[11] = biological target: T11, Gβ1γ2 Lys57Ala (Rattus norvegicus, UniProt P54311, K57A); test: Phage ELISA, b-βγ mutant Lys57Ala; conditions: alanine-substituted Lys57, C-Terminal Interface; mean ± SD
T11 construct: made in house; host or cells: Sf9 insect cells (baculovirus)
T11 sequence (P54311 whole entry K57A): as the sequence (P54311 whole entry M101A) above, with K57A, A101M counted along it
T11 sequence (P63212 2-68 partner limits assumed): as the sequence (P63212 2-68 partner limits assumed) above
From the text: as §1, §2, §3, §4

[12] = biological target: T12, Gβ1γ2 Tyr145Ala (Rattus norvegicus, UniProt P54311, Y145A); test: Phage ELISA, b-βγ mutant Tyr145Ala; conditions: alanine-substituted Tyr145, N-Terminal Interface; mean ± SD
T12 construct: made in house; host or cells: Sf9 insect cells (baculovirus)
T12 sequence (P54311 whole entry Y145A): as the sequence (P54311 whole entry M101A) above, with A101M, Y145A counted along it
T12 sequence (P63212 2-68 partner limits assumed): as the sequence (P63212 2-68 partner limits assumed) above
From the text: as §1, §2, §3, §4

[13] = biological target: T13, Gβ1γ2 Trp99Ala (Rattus norvegicus, UniProt P54311, W99A); test: Phage ELISA, b-βγ mutant Trp99Ala; conditions: alanine-substituted Trp99, C-Terminal Interface; mean ± SD
T13 construct: made in house; host or cells: Sf9 insect cells (baculovirus)
T13 sequence (P54311 whole entry W99A): as the sequence (P54311 whole entry M101A) above, with W99A, A101M counted along it
T13 sequence (P63212 2-68 partner limits assumed): as the sequence (P63212 2-68 partner limits assumed) above
From the text: as §1, §2, §3, §4

T1 sequence (P54311 whole entry D186A): as the sequence (P54311 whole entry M101A) above, with A101M, D186A counted along it
T1 sequence (P63212 2-68 partner limits assumed): as the sequence (P63212 2-68 partner limits assumed) above

| Sequence | % of Wild-Type Signal, Asp186 [1] [%] | % of Wild-Type Signal, Met101 [2] [%] | % of Wild-Type Signal, Met188 [3] [%] | % of Wild-Type Signal, Trp332 [4] [%] | % of Wild-Type Signal, His311 [5] [%] | % of Wild-Type Signal, Asp246 [6] [%] | % of Wild-Type Signal, Leu117 [7] [%] | % of Wild-Type Signal, Arg314 [8] [%] | % of Wild-Type Signal, Tyr59 [9] [%] | % of Wild-Type Signal, Asn230 [10] [%] | % of Wild-Type Signal, Lys57 [11] [%] | % of Wild-Type Signal, Tyr145 [12] [%] | % of Wild-Type Signal, Trp99 [13] [%] |
| --- | --- | --- | --- | --- | --- | --- | --- | --- | --- | --- | --- | --- | --- |
| WCPPKAMTQLGIKAC [C14] | 3.6 ± 1.9 | 1.1 ± 4.9 | 9.9 ± 3.8 | 1.6 ± 2.4 | 6.1 ± 3.4 | 6.3 ± 13.9 | 3.8 ± 9.2 | 3.9 ± 7.9 | 3.6 ± 2.0 | 60.0 ± 26.5 | 3.0 ± 5.0 | 1.9 ± 5.9 | 10.1 ± 3.3 |
| SCEKRLGVRSCT [C5] | 45.7 ± 5.2 | 47.8 ± 18.9 | 97.2 ± 14.2 | 3.2 ± 3.7 | 58.7 ± 14.4 | 56.3 ± 4.1 | 28.5 ± 5.2 | 76.5 ± 6.7 | 73.8 ± 16.6 | 33.5 ± 7.2 | 5.6 ± 5.3 | 16.7 ± 4.8 | 39.0 ± 3.8 |
| SIGKALFILGYPDYD [3.14] | 14.4 ± 13.4 | 26.8 ± 12.5 | 2.5 ± 3.7 | 7.1 ± 3.7 | 93.4 ± 21.5 | 66.5 ± 7.5 | 2.1 ± 2.4 | 50.2 ± 5.0 | 24.7 ± 15.2 | 22.4 ± 4.2 | 18.6 ± 4.6 | 0.8 ± 0.9 | 66.0 ± 7.7 |
| SCEKRYGIEFCT [C4] | 51.3 ± 15.0 | 61.2 ± 30.9 | 127.5 ± 22.4 | 1.7 ± 3.0 | 36.5 ± 8.3 | 35.8 ± 7.4 | 18.4 ± 7.1 | 1.4 ± 1.0 | 7.6 ± 9.6 | 11.5 ± 6.0 | −0.2 ± 1.9 | 4.4 ± 3.8 | 67.0 ± 15.2 |
| SCGHGLKVQSTIGACA [3C] | 35.0 ± 17.2 | −4.2 ± 5.5 | −5.7 ± 5.6 | −0.3 ± 1.7 | 30.5 ± 18.9 | 2.0 ± 2.7 | 10 ± 13.3 | 8.3 ± 3.6 | 8.5 ± 6.4 | 4.1 ± 4.4 | 3.6 ± 7.5 | 2.7 ± 10.5 | −0.5 ± 5.9 |
| SCKRTKAQILLAPCT [C1] | 1.4 ± 1.7 | 70.5 ± 35.3 | 4.0 ± 3.4 | −0.3 ± 2.5 | 3.0 ± 4.0 | 2.3 ± 3.0 | 5.2 ± 3.1 | 2.8 ± 1.6 | 0.3 ± 0.7 | 19.8 ± 12.3 | 0.1 ± 1.6 | 88.0 ± 29.9 | 1.2 ± 2.7 |
